Each block holds one molecule with its values, some of them ahead of it. Positions of bridges follow the written chain, without caps; N, C: chain ends. Non-standard residues stand in square brackets, D forms with d. No end group written: not given here. 4‑methoxycoumarin = 4-Methoxycoumarin, an N-terminal optical probe label; Bip = N[C@@H](Cc1ccc(-c2ccccc2)cc1)C(=O)O; Tyr(3-I) = N[C@@H](Cc1ccc(O)c(I)c1)C(=O)O; Hyp = O=C(O)[C@@H]1C[C@@H](O)CN1; Cha = N[C@@H](CC1CCCCC1)C(=O)O; Ahx = NCCCCCC(=O)O; βAla = NCCC(=O)O
Key:
DD(E) fragment of fibrin [1] = experiment: affinity of optical contrast agent to fibrin DD(E) fragment
DD(E) fragment of fibrin [2] = experiment: affinity of fluorophore-labelled peptide; target taken as fibrin DD(E) fragment
fibrin = experiment: Fibrin Affinity; method not stated
DD(E) fragment of fibrin [3] = experiment: affinity of the unlabelled peptide; target taken as fibrin DD(E) fragment
DD(E) fragment of fibrin [4] = experiment: affinity to soluble fibrin DD(E) fragment
DD(E) fragment of fibrin [5] = target: T1, DD(E) fragment of fibrin; experiment: affinity to DD(E) fragment of fibrin
T1 chain 1: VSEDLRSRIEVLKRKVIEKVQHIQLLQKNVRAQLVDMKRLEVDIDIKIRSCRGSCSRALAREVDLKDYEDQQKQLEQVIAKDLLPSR
T1 chain 2: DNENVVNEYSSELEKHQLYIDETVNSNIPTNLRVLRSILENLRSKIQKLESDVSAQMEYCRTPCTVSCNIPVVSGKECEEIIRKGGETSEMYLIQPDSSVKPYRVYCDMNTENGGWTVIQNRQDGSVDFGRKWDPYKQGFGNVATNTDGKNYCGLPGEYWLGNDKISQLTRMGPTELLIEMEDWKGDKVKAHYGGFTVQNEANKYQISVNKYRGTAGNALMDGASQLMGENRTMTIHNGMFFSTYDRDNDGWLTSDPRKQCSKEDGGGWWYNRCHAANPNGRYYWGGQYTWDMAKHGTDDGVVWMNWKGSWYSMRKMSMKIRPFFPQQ
T1 chain 3: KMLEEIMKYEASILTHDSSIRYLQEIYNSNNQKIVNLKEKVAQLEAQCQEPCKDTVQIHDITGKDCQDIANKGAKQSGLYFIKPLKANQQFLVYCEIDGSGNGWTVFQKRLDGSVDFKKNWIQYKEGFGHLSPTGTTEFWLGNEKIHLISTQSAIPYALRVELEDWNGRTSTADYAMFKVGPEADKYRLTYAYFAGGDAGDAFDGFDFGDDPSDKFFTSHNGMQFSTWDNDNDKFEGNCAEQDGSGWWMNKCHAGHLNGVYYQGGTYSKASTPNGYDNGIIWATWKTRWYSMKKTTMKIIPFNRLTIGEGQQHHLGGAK
T1 chain 4: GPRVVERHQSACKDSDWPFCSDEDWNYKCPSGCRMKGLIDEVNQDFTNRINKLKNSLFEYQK
T1 chain 5: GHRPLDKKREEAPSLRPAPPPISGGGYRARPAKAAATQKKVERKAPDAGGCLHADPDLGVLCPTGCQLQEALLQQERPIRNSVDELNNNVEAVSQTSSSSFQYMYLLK
T1 chain 6: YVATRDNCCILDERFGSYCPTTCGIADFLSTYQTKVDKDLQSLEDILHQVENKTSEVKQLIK

DD(E) fragment of fibrin [6] = target: T1, DD(E) fragment of fibrin; experiment: affinity of optical contrast agent to fibrin DD(E) fragment

- Kd (DD(E) fragment of fibrin [1]): 55 nM
- Kd (DD(E) fragment of fibrin [2]): 60 nM
Molecule: Structure J: Fluor-Q-W-E-C-P-Y-G-L-C-W-I-Q (peptide)

- Ki (fibrin): 4700 nM
- Kd (DD(E) fragment of fibrin [3]): 3000 nM
Molecule: QWECPYGLCWIQ […]

- Kd (DD(E) fragment of fibrin [1]): 99 nM
Molecule: fluorescein-[Ahx]FHC[Hyp][Tyr(3-I)]DLCHI (disulfide 4-9 (inferred)) [Structure B: Fluor-Ahx-F-H-C-Hyp-Y(3-I)-D-L-C-H-I]

- Kd (DD(E) fragment of fibrin [1]): 136 nM
Molecule: fluorescein-[βAla]FHC[Hyp][Tyr(3-I)]DLCHI (disulfide 4-9 (inferred)) [Structure A: Fluor-beta-A-F-H-C-Hyp-Y(3-I)-D-L-C-H-I]

- Kd (DD(E) fragment of fibrin [6]): 119 nM
Molecule: fluorescein-KWFHC[Hyp][Tyr(3-I)]DLCHI (disulfide 5-10 (inferred)) [Structure H: Fluor-K-W-F-H-C-Hyp-Y(3-I)-D-L-C-H-I]

- Kd (DD(E) fragment of fibrin [6]): 212 nM
Molecule: fluorescein-KFHC[Hyp][Tyr(3-I)]DLCHI (disulfide 4-9 (inferred)) [Structure F: Fluor-K-F-H-C-Hyp-Y(3-I)-D-L-C-H-I]

Further lines, the molecule ahead of its results:

B1: Compound 32 (peptide)
peptide: LPCDYYGTCXD
modifications: not fully specified; Bip at 10; cyclized with thallium trifluoroacetate; C-terminus as -CO-NHCH2C6H4CH2NH2; Synthon #2 (bb(CO)DTPA chelates, Gd) coupled to the N- and C-terminal amines
- Kd (DD(E) fragment of fibrin [4]): 4700 nM

Molecule: tetramethylrhodamine-QWECPYGLCWIQ (cysteine pairing not given here) [Compound L: tetramethylrhodamine derivative of …]
- Kd (DD(E) fragment of fibrin [2]): 2000 nM

Molecule: {4‑methoxycoumarin}-QWECPYGLCWIQ (cysteine pairing not given here) [Compound N: 4-methoxycoumarin derivative of …]
- Kd (DD(E) fragment of fibrin [2]): 200 nM

Molecule: LPCDYYGTCLD (not fully specified; cysteine pairing not given here) [L-P-C-D-Y-Y-G-T-C-L-D]
- Kd (DD(E) fragment of fibrin [5]): ≤ 10000 nM

Molecule: [Cha]PCDYYGTC[Bip]D (cysteine pairing not given here) [Cha-P-C-D-Y-Y-G-T-C-Bip-D]
- Kd (DD(E) fragment of fibrin [5]): ≤ 10000 nM
